The values below come from patent US20070071681A1, “Apparatus and method for computer modeling type 1 diabetes” (Entelos, Inc., priority 2005, published 2007).

The test system of one assay is NOD mouse. To be noted: cited from earlier work.
The test system of assay [1] is average virtual NOD mouse. Put plainly: Simulation of therapy protocols in the average virtual NOD mouse (computer model of type 1 diabetes). To be noted: IL-10; Pennline 1994 protocol; at 28 wks; expectation from published data. An excerpt:
One application of a NOD mouse type 1 diabetes model is to improve understanding of type 1 diabetes pathogenesis in the NOD mouse. Model development therefore focused on islet β cell autoimmunity and tolerance, as well as related mechanisms and interventions. To provide for general immunologic function and not only progression to diabetes, the development effort included representation of several NOD mouse phenotypes. The first phenotype was an average diabetic virtual mouse. […] Typically, a simulation of the average virtual mouse concludes shortly after diabetes diagnosis, which is consistent with post-diabetic sacrifice of NOD mice in the laboratory. […] Additional virtual mice, each with different clinical behaviors and/or underlying pathophysiologies, have also been generated. Similarly, development of modals of type 1 diabetes in other mammals, such as humans, can include the development of various virtual patients representing normal animals or animals having varying degrees of severity or progression of type 1 diabetes.
Because diabetes is typically assessed by measuring blood or urinary glucose, blood glucose levels were represented in the model's clinical read-out. Hyperglycemia (a diabetes indicator) was defined as a glucose level in excess of a commonly used standard (e.g., 200, 250, 300, 350 mg/dl). […]

B1: IL-10: exogenous recombinant human IL-10 (protein, UniProt P22301 19-178, looked up)
Interleukin-10: SPGQGTQSENSCTHFPGNLPNMLRDLRDAFSRVKTFFQMKDQLDNLLLKESLLEDFKGYLGCQALSEMIQFYLEEVMPQAENQDPDIKAHVNSLGENLKTLRLRLRRCHRFLPCENKSKAVEQVKNAFNKLQEKGIYKAMSEFDIFINYIEAYMTMKIRN
Regarding B1, the Incidence in the assay with NOD mouse (IL-10, Pennline 1994, Rx 9-24 wks, 1 μg recombinant human IL-10 daily, 15 wks, at 28 wks, vs 85% control) is 25% vs. 85% control at 28 wks. The Insulitis result with NOD mouse (IL-10, Pennline 1994) is on record as “Reduced severity of insulitis”. Also, the Disease progression result in the assay on NOD mouse (IL-10 delivered in various ways) is listed as “protect against disease progression”. Besides, the “Expected virtual mouse outcome” value in assay [1] was “No diabetes at 28 wks”.
